The series concerns the target T1, labeled peptide ecot2 (T2), Dabcyl-KVSRRRRRGGD-Edans (not fully specified).
T1 chain: KVSRRRRRGGD

The values below come from patent US20060257955.

B1: E. coli outer membrane protease OmpT (protein)
chain: STETLSFTPDNINADISLGTLSGKTKERVYLAEEGGRKVSQLDWKFNNAAIIKGAINWDLMPQISIGAAGWTTLGSRGGNMVDQDWMDSSNPGTWTDESRHPDTQLNYANEFDLNIKGWLLNEPNYRLGLMAGYQESRYSFTARGGSYIYSSEEGFRDDIGSFPNGERAIGYKQRFKMPYIGLTGSYRYEDFELGGTFKYSGWVESSDNDEHYDPGKRITYRSKVKDQNYYSVAVNAGYYVTPNAKVYVEGAWNRVTNKKGNTSLYDHNNNTSDYSKNGAGIENYNFITTAGLKYTF
B1: the “protease assay (cleavage of substrate T2, relative fluorescence), buffer with 5% fetal bovine serum” value is listed as “detection of the presence of E. coli in the E. coli sample occurred in the presence of FBS” and the “protease assay (cleavage of substrate T2, relative fluorescence), simulated wound fluid buffer with 5% bovine serum albumin” value was “the protease reactivity of the E. coli sample was not affected by the simulated wound fluid buffer”.
